These results are taken from patent US20200239586A1 (LA TROBE UNIVERSITY, published 2020).

Experiment [1] addresses T1, synthetic peptide hFn14 sub-domain 1p (human, biotin on the added C-terminal lysine).
T1 construct: synthesised by GLBiochem
T1 peptide: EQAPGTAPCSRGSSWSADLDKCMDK
The experiment is described as follows: ELISA on biotinylated synthetic peptide. The method, then:
Peptides representing sub-domains 1p, 2 and 3 of hFn14 (FIG. 20, Panels B and C and FIG. 14, Panel A) and for disulfide pair mutants (Cys3&6ΔS and Cys4&5ΔS; FIG. 20 Panels D and E) were synthesized by GLBiochem Ltd. (Shanghai, China) and the cysteine residues for disulfide bonds were chosen as described in the solution structure by He et al., (2009). An additional lysine residue was added to the C-terminus in order to attach a biotin moiety and to enable the peptides to bind to neutravidin coated plates (Pre-blocked; Pierce). For these experiments, a control peptide with a biotin at the C-terminus was used as a negative control and isotype control antibodies were also used.
The ELISA was performed essentially according to the manufacturer's recommended protocol (Pierce). Briefly, peptide was coated onto wells (in duplicate) at 1-10 μg/ml for 2 hours at room temperature. Wells were washed in PBS/0.05% Tween 20/0.1% BSA 3 times and dilutions of each antibody were added in wash buffer for 1 hour with gentle agitation. After another three washes anti-mouse HRP-conjugated to horse radish peroxidase (HRP; Chemicon) was added at 1/1000 dilution for 1 hour shaking. Finally, after 4 further washes the plate was developed using TMB (3,3′,5,5′-tetramethylbenzidine) substrate (Pierce), and the reaction was stopped using 2M H2SO4 solution. Optical density at 450 nm was quantified using a Spectromax absorbance spectrophotometer.
Background: ELISA stands for enzyme-linked immunosorbent assay.

For experiment [2], the target named is T2, synthetic peptide Sub-domain 2 Cys 3&6 ΔS (human, not fully specified; biotin on the added C-terminal lysine).
T2 construct: also called sub-domain 2 cys3&6ΔS mutant
T2 peptide: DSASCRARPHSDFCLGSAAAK
Nature of the experiment: peptide ELISA: biotinylated synthetic peptide on neutravidin plate, antibody titrated (legend: 0.1-0.0001 µg/ml; axis 'Log (c)'), anti-mouse HRP, TMB, OD 450 nm.

In experiment [3] the target is phage expressed hFn14 mutant W42A (human, UniProt Q9NP84 28-77). Nature of the experiment: phage ELISA (Method 2), antibody on plate, phage dilution 1/X on the x axis. The source says: (§1) For mutants P59A and F63A, binding was detected using HRP-conjugated anti-M13-phage polyclonal IgG and TMB substrate. For all other mutants binding was detected using Biotin-conjugated anti-M13-phage monoclonal antibody followed by HRP-conjugated Streptavidin and TMB substrate. Optical density at 450 nm was quantified using a Spectramax spectrophotometer. Error bars for each dilution represent the standard deviation of duplicate assays. FIG. 27A wild type Fn14, FIG. 27B W42A, FIG. 27C S54A, FIG. 27D A57G, FIG. 27E P59A, FIG. 27F S61A, FIG. 27G F63A, FIG. 27H L65A. In all cases error bars represent the standard deviation. X axis=dilution of phage. Methods according to Epitope mapping using phage expressed Fn14—Method 2
Chain of phage expressed hFn14 mutant W42A (Q9NP84 28-77 W42A): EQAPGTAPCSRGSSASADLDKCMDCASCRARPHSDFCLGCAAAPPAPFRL
(§2) The wells of Maxisorp immunoplates (Nunc) were coated overnight at 4° C. with the target monoclonal antibodies or recombinant Tweak-Fc at a concentration of 1.5 μg/ml in PBS. mAb 5G8 was used as a negative control for ELISA plates coated with tested antibodies. […] 10-fold serial dilutions of phage were made using PBS solution and phage dilutions were added to the coated, blocked ELISA plates for 1 hour, shaking at room temperature. Phage was subsequently removed from the wells and the ELISA plates were washed three times with PBS/0.05% Tween 20.
(§3) Method A: HRP-conjugated anti-M13-phage antibody (GE Healthcare) at a 1/5000 dilution in PBS was then added to the wells of the ELISA plates for 1 hour, shaking at room temperature. The antibody solution was then removed from the wells and the ELISA plates were washed four times with PBS/0.05% Tween 20. Method B: Biotin-conjugated anti-M13-phage antibody (GE Healthcare) diluted in PBS was then added to the wells of the ELISA plates for 1 hour shaking at room temperature. The antibody solution was then removed from the wells and the ELISA plates were washed three times with PBS/0.05% Tween 20. HRP-conjugated Streptavidin diluted in PBS was then added to the wells of the ELISA plates for 1 hour, shaking at room temperature. The solution was then removed from the wells and the ELISA plates were washed three times with PBS/0.05% Tween 20. ELISAs were developed using TMB substrate and the reaction was stopped using 2 M […] solution.

In experiment [4] the target is phage expressed hFn14 mutant S61A (human, UniProt Q9NP84 28-77). The experiment is described as above.
Chain of phage expressed hFn14 mutant S61A (Q9NP84 28-77 S61A): as the sequence (Q9NP84 28-77 W42A) above, with A15W, S34A counted along it
Excerpt: as §1, §2, §3

Experiment [5] concerns the target phage expressed hFn14 mutant D62A (human, UniProt Q9NP84 28-77). The experiment is described as follows: phage ELISA (Method 2): antibody coated on the plate, 10-fold dilutions of phage displaying hFn14 D62A; biotin anti-M13 antibody, streptavidin-HRP, TMB, OD 450 nm; x axis = dilution of phage. The source says: ELISAs showing the reactivity of mutant hFn14 phage constructs with the anti-Fn14 monoclonal antibodies CRCBT-06-001, CRCBT-06-002, CRCBT-06-004 compared to ITEM-1 and ITEM-4. Binding was detected using Biotin-conjugated anti-M13-phage monoclonal antibody followed by HRP-conjugated Streptavidin and TMB substrate. Optical density at 450 nm was quantified using a Spectramax spectrophotometer. Error bars for each dilution represent the standard deviation of duplicate assays. FIG. 28A L46A, FIG. 28B D51A and FIG. 28C D62A. In all cases error bars represent the standard deviation. X axis=dilution of phage. Methods according to Epitope mapping using phage expressed Fn14—Method 2.
The wells of Maxisorp immunoplates (Nunc) were coated overnight at 4° C. with the target monoclonal antibodies or recombinant Tweak-Fc at a concentration of 1.5 μg/ml in PBS. mAb 5G8 was used as a negative control for ELISA plates coated with tested antibodies. […] 10-fold serial dilutions of phage were made using PBS solution and phage dilutions were added to the coated, blocked ELISA plates for 1 hour, shaking at room temperature. […]
Method A: HRP-conjugated anti-M13-phage antibody (GE Healthcare) at a 1/5000 dilution in PBS was then added to the wells of the ELISA plates for 1 hour, shaking at room temperature. […] Optical density at 450 nm was quantified using a Spectramax absorbance spectrophotometer.

Experiment [6] deals with T3, His tagged hFn14 extracellular region mutant R56K (human, UniProt Q9NP84 28-77).
T3 construct: not shown: (His)6 tag
Nature of the experiment: ELISA with purified His-tagged hFn14 R56K; x axis 'Log (c)' without unit, µg/ml by the legend.

B1: CRCBT-06-001 (antibody, IgG2b, V domains shown)
VH: QVQLQQSGGGLVQPGGSMKLSCIASGFTFSSYWMSWVRQSPEKGLEWVAEIRSKSDNYATHYAESVKGKFTISRDDSKSRFFLQMNNLRAEDTGIYYCSSTYADYFHYWGQGTDLTVSS
VL: DIVMTQTPASLAVSLGQRATISCRASQSVSTSTYSYMHWYQQKPGQPPKLLIKYASSLESGVPARFSGSGSGTDFTLNIHPVEEDDTATYYCQHSWEIPYTFGGGTKLEIKR
As to B1, the binding result is on record as “no binding” in experiment [1]; “binds” in experiment [2]; “binds” in experiment [3]; “binds” in experiment [4]; “binds” in experiment [5]; “binds” in experiment [6].

B2: CRCBT-06-002 (antibody, IgG1, V domains shown)
VH: EVKLQQSGGGLVQPGGSMKLSCVASGFTFSYYWMNWVRQSPEQGLEWIAEIRLQSNDYPTHYAESVKGRFTISRDDSKNSVYLQMNNLRPEDTGIYYCACRYADYFDHWGQGTTLTVSS
VL: DTVLTQSPASLVVSLGQRATISCRASQSVSTSDYSYIHWYQQKPGQPPKFLIKYASNRDSGVPARFSGSGSGTDFTLNIHPVEEDDTAIYYCQHSWEIPPTFGAGTKLELQR
On to B2, for which the binding result in experiment [1] is listed as “no binding”; in experiment [2] it was “binds”; in experiment [3], “binds”; in experiment [4], “binds”; in experiment [5] it was “binds”; in experiment [6], “binds”.
